One experiment addresses T1, tPA (Homo sapiens, UniProt P00750).
T1 construct: purchased Boehringer-Ingelheim (Germany)
Nature of the experiment: ELISA: binding of tPA to glycated albumin and Hb. The settings on record: g6p-glycated protein immobilized. As to the method:
Binding of tPA to albumin-g6p (four-week and 23-week incubations), albumin-glyceraldehyde, control albumin, human Hb-g6p (ten-week incubation), Hb control, or to Aβ (1-40) was tested using an enzyme-linked immunosorbent assay (ELISA) set-up. Albumin-g6p and control albumin (2.5 μg ml^−1 in coat buffer, 50 mM Na2CO3/NaHCO3 pH 9.6, 0.02% m/v NaN3, 50 μl/well) were immobilized for one hour at room temperature in 96-well protein Immobilizer plates (Exiqon, Vedbaek, Denmark). Aβ (1-40) (10 μg ml^−1 in coat buffer) was immobilized for 75 minutes at room temperature in a 96-well peptide Immobilizer plate (Exiqon, Vedbaek, Denmark). Control wells were incubated with coat buffer only. After a wash step with 200 μl of PBS/0.1% v/v Tween 20, plates were blocked with 300 μl of PBS/1% v/v Tween 20, for two hours at room temperature while shaking. All subsequent incubations were performed in PBS/0.1% v/v Tween 20 for one hour at room temperature while shaking, with volumes of 50 μl per well. After each incubation, wells were washed five times with 200 μl of PBS/0.1% v/v Tween 20. Increasing amounts of f.l. tPA or K2-P tPA was added in triplicate to coated wells and to control wells. […] Absorbance was read at 490 nm on a Vmax kinetic microplate reader (Molecular Devices, Sunnyvale, Calif., USA).
In general terms: ELISA stands for enzyme-linked immunosorbent assay.

The next experiment deals with T2, albumin-g6p (Bos taurus, UniProt P02769).
T2 construct: Bovine serum albumin (BSA) fraction V pH 7.0; host or cells: bovine serum, fraction V
T2 sequence (P02769 25-607): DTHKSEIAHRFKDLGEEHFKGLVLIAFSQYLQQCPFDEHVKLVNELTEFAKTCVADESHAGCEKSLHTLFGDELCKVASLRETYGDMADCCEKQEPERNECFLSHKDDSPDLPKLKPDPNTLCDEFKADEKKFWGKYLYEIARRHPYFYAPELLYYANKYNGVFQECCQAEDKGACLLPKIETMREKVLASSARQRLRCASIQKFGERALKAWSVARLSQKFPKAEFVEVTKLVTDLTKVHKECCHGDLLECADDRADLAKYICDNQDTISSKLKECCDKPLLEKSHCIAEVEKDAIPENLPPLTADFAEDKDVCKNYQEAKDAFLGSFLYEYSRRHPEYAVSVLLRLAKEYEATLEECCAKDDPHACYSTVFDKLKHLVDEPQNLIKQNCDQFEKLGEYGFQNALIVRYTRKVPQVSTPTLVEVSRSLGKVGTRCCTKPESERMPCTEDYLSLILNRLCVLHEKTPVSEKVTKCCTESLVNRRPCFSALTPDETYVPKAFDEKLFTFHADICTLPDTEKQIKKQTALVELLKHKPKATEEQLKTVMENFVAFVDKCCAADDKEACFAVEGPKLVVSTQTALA
Nature of the experiment: ELISA: binding of tPA-F-GST and RPTPμ-GST to glycated albumin. Further details: species or system bovine. The settings on record: detection with anti-GST 2F3. As to the method:
(§1) Binding of tPA-F-GST and RPTPμ-GST to fibrous amyloids human Aβ (1-40) and albumin-[…] was assayed with an ELISA. In brief, human Aβ (1-40), albumin-[…], or buffer only, were coated on a peptide I Immobilizer or a protein I Immobilizer, respectively. Wells were incubated with the purified GST-tagged constructs or control medium and binding was detected using primary anti-GST monoclonal antibody 2F3 and RAMPO. The wells were also incubated with […] of tPA in the presence of 10 mM of εACA. Binding of tPA is independent of the lysyl binding site located at the kringle 2 domain. Binding of tPA was measured using primary antibody 374B and RAMPO. Experiments were performed in triplicate and blank readings of non-coated wells were substracted.

For the next experiment, the target named is T3, Aβ fibrils (Homo sapiens, UniProt P05067).
T3 construct: Peptide Aβ (1-40), containing amino acids as present in the described human Alzheimer peptide; purchased Pepscan, Inc. (The Netherlands) or peptide synthesis facility at the Netherlands Cancer Institute; host or cells: synthetic peptide
T3 sequence (P05067 672-711): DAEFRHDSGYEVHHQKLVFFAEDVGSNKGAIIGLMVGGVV
The experiment in a line: Amyloid pull-down with insoluble Aβ fibers. In kind it is binding. As to conditions: conditioned BHK medium. How it is done:
Conditioned medium of BHK cells expressing GST-tagged tPA F, F-EGF, EGF, K1, F-EGF-K1, FXII F, HGFa F, Fn F4, Fn F5, Fn F4-5 and GST was used for amyloid binding assays. At first, constructs were adjusted to approximately equal concentration using Western blots. Qualitative binding of the recombinant fragments were evaluated using a “pull-down” assay. To this end, the recombinantly made fragments were incubated with either Aβ or IAPP fibrils. Since these peptides form insoluble fibers, unbound proteins can be easily removed from the fibers following centrifugation. The pellets containing the bound fragments were subsequently washed several times. Bound fragments were solubilized in SDS-sample buffer and analyzed by PAGE, as were unbound proteins in the supernatant fraction and starting material. The gels were analyzed using immunoblotting analysis with the anti-GST antibody Z-5.

The next experiment has as its target Aβ (1-40) (Homo sapiens, UniProt P05067). The experiment in a line: ELISA: binding of tPA-F-GST and RPTPμ-GST to human Aβ (1-40). Further details: Peptide Aβ (1-40), containing amino acids as present in the described human Alzheimer peptide; purchased Pepscan, Inc. (The Netherlands) or peptide synthesis facility at the Netherlands Cancer Institute; host or cells: synthetic peptide. As to conditions: detection with anti-GST 2F3. As to the method: as §1

The target in a further experiment is T4, Aβ (Homo sapiens, UniProt P05067).
T4 construct: Peptide Aβ (1-40), containing amino acids as present in the described human Alzheimer peptide; purchased Pepscan, Inc. or peptide synthesis facility of the Netherlands Cancer Institute; host or cells: chemical synthesis
T4 sequence (P05067 672-711): as above
The experiment in a line: Solid-phase binding ELISA of tPA, plasminogen and plasmin to coated Aβ. As to conditions: 50 mM ε-aminocaproic acid. How it is done:
FIG. 3 is a set of graphs depicting binding of tPA, plasminogen and plasmin to Aβ. Aβ was coated onto plastic 96-well plates. Increasing concentrations of either (A) tPA or (B) plasmin(ogen) were allowed to bind to the immobilized peptide. After extensive washing, tPA and plasmin(ogen) binding was assessed by enzyme-linked immunosorbent assays using anti-tPA and anti-plasminogen antibodies. Binding of (C) tPA and (D) plasmin to Aβ in the presence of 50 mM ε-aminocaproic acid (ε-ACA) was assessed as in A and B.
To test whether tPA, plasminogen and plasmin bind Aβ, solid-phase binding assays were performed. Aβ was coated onto plastic 96-well plates and binding of the peptide to either plasmin(ogen) or to tPA was assessed by overlaying the coated peptide with increasing concentrations of either tPA, plasminogen or plasmin. Binding was assessed using specific antibodies to either plasmin(ogen) or to tPA by performing ELISA. […] However, activated plasminogen (plasmin) does bind to Aβ and does so with a kD of 47 nM. […] To test this, use was made of the lysine analogue ε-aminocaproic acid (εACA) and binding of plasmin and tPA to Aβ was tested in its presence. […] In contrast, εACA has no effect on the tPA-Aβ interaction (FIG. 3, Panel C). Thus, it was concluded that plasmin binds to free lysines that were generated during the incubation period, presumably via its lysine-binding Kringle domain(s). In line with this, the kD of plasminogen Kringle domain binding to free lysines in fibrin is similar to the kD for plasmin binding to Aβ.

Experiment [1] has as its system differentiated N1E-115 cells. The experiment in a line: N1E-115 cell detachment (methylene blue staining). It is filed as cell-based, mouse. The settings on record: plasmin added with Aβ (25 μM), 48 hours. How it is done:
FIG. 4 is a set of graphs illustrating stimulation of tPA-mediated plasmin formation by Aβ and synergistic stimulation of cell detachment by plasminogen and Aβ. Panel A depicts that plasminogen (200 μg/ml) and tPA (200 pM) were incubated with Aβ (5 μM) or control buffer. Samples were taken from the reaction mixture at the indicated periods of time and plasmin activity was measured by conversion of the chromogenic plasmin substrate S-2251 at 405 nm. […] After 48 hours, the dead cells were washed away and the remaining adherent cells were stained with methylene blue. Plasmin cannot prevent Aβ-induced cell detachment. Panel C illustrates that N1E-115 cells were differentiated and received the indicated concentrations of plasminogen in the presence or absence of 10 μM Aβ. After 24 hours, cell detachment was assessed. […] Panel D is an immunoblot analysis of plasmin formation and laminin degradation. Differentiated N1E-115 cells were treated with or without Aβ (10 μM) in the absence or presence of added plasminogen. Addition of Aβ results in the formation of plasmin (bottom panel) and in degradation of laminin (top panel).
FIG. 5 depicts graphs illustrating that carboxypeptidase B inhibits Aβ-stimulated tPA-mediated plasmin formation and cell detachment. […] Samples were taken from the reaction mixture at the indicated periods of time and plasmin activity was measured by conversion of the chromogenic plasmin substrate S-2251 at 405 nm. The reaction was performed in the absence or the presence of 50 μg ml^−1 carboxypeptidase B (CpB) and in the absence or presence of 3.5 μM carboxypeptidase inhibitor (CPI). CpB greatly attenuates A-stimulated plasmin formation. […] After 24 hours, the cells were photographed. Panel C illustrates that, subsequently, the cells were washed once with PBS and the remaining cells were quantified as percentage-adhered cells by methylene blue staining. In Panel D, the cells were treated as in Panels B and C and medium and cell fractions were collected and analyzed by Western blot using an anti-plasmin(ogen) antibody. Aβ stimulates plasmin formation that is inhibited by CpB.
N1E-115 mouse neuroblastoma cells were routinely cultured in DMEM containing 5% FCS, supplemented with antibiotics. Cells were differentiated into post-mitotic neurons.^52 The cells were exposed to Aβ (50 μg ml^−1) for 24 hours in the presence or absence of 20 μg ml^−1 plasminogen in the presence or absence of 50 μg ml^−1 CpB. Cells were photographed, counted and lysed by the addition of 4× sample buffer (250 mM Tris pH 6.8, 8% SDS, 10% glycerol, 100 mM DTT, 0.01% w/v bromophenol blue) to the medium. The lysate, containing both adherent and floating (presumably dying and/or dead) cells, as well as the culture medium, were analyzed for the presence of plasminogen and plasmin, as well as for laminin, by Western blot analysis using specific antibodies against plasminogen (MoAb 3642, American Diagnostics), laminin (PoAb L9393, Sigma).

The text below walks through data of patent publication US8158585B2, “Cross-β structure comprising amyloid-binding proteins and methods for detection of the cross-β structure, for modulating cross-β structures fiber formation and modulating cross-β structure-mediated toxicity” (CrossBeta Biosciences B.V., priority 2002, dated 2012).

Where no end group is shown, it is not given here.

Chain of Aβ (1-40) (P05067 672-711): as above
T1 sequence (P00750 36-562): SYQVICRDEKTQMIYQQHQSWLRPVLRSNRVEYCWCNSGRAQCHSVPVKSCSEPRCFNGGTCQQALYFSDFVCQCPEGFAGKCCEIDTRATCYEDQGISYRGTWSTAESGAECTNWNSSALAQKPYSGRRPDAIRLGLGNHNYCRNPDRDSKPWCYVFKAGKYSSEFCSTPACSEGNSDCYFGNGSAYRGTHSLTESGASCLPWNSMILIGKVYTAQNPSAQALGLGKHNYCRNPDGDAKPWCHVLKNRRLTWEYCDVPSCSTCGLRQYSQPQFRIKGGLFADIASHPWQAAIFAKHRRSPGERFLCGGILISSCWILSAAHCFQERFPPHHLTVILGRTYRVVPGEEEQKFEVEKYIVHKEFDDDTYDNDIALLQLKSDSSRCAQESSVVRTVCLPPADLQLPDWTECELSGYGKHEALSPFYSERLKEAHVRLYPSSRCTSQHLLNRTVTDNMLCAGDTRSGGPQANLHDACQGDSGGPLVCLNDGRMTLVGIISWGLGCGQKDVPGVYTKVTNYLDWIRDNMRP

“Hb-g6p: human hemoglobin incubated with glucose-6-phosphate”: the tPA binding result in the experiment with tPA is “high-affinity tPA binding”.
Take “tPA-F-GST: amino-terminal finger domain (F) of human tPA, residues Ser1-Ser50, with GST tag (SYQVICRDEKTQMIYQQHQSWLRPVLRSNRVEYCWCNSGRAQCHSVPVKS-{GST}; cysteine pairing not given here)”: the “binding of GST-tagged construct to albumin-g6p” value in the experiment with albumin-g6p is recorded as “bound”. Besides, the “binding to Aβ fibers (pull-down, Western blot)” value with Aβ fibrils is given as “Efficient binding”. Further, in the experiment with Aβ (1-40), the “binding of GST-tagged construct to human Aβ (1-40)” value was “bound”.

B1: RPTPμ-GST: extracellular domain of receptor-like protein tyrosine phosphatase μ with GST tag, control (protein, UniProt P28827 21-742, looked up)
extracellular domain: ETFSGGCLFDEPYSTCGYSQSEGDDFNWEQVNTLTKPTSDPWMPSGSFMLVNASGRPEGQRAHLLLPQLKENDTHCIDFHYFVSSKSNSPPGLLNVYVKVNNGPLGNPIWNISGDPTRTWNRAELAISTFWPNFYQVIFEVITSGHQGYLAIDEVKVLGHPCTRTPHFLRIQNVEVNAGQFATFQCSAIGRTVAGDRLWLQGIDVRDAPLKEIKVTSSRRFIASFNVVNTTKRDAGKYRCMIRTEGGVGISNYAELVVKEPPVPIAPPQLASVGATYLWIQLNANSINGDGPIVAREVEYCTASGSWNDRQPVDSTSYKIGHLDPDTEYEISVLLTRPGEGGTGSPGPALRTRTKCADPMRGPRKLEVVEVKSRQITIRWEPFGYNVTRCHSYNLTVHYCYQVGGQEQVREEVSWDTENSHPQHTITNLSPYTNVSVKLILMNPEGRKESQELIVQTDEDLPGAVPTESIQGSTFEEKIFLQWREPTQTYGVITLYEITYKAVSSFDPEIDLSNQSGRVSKLGNETHFLFFGLYPGTTYSFTIRASTAKGFGPPATNQFTTKISAPSMPAYELETPLNQTDNTVTVMLKPAHSRGAPVSVYQIVVEEERPRRTKKTTEILKCYPVPIHFQNASLLNSQYYFAAEFPADSLQAAQPFTIGDNKTYNGYWNTPLLPYKSYRIYFQAASRANGETKIDCVQVATKGAATPKPVPEPEKQTDHTVK
modifications: extracellular domain GST tag
notes: extracellular domain of receptor-like protein tyrosine phosphatase μ with GST tag, control
On to B1, for which the “binding of GST-tagged construct to albumin-g6p” value with albumin-g6p was “no binding”. Also, the “binding of GST-tagged construct to human Aβ (1-40)” value with Aβ (1-40) was “no binding”.

B2: plasmin: activated plasminogen (protein)
chain: KVYLSECKTGNGKNYRGTMSKTKNGITCQKWSSTSPHRPRFSPATHPSEGLEENYCRNPDNDPQGPWCYTTDPEKRYDYCDILECEEECMHCSGENYDGKISKTMSGLECQAWDSQSPHAHGYIPSKFPNKNLKKNYCRNPDRELRPWCFTTDPNKRWELCDIPRCTTPPPSSGPTYQCLKGTGENYRGNVAVTVSGHTCQHWSAQTPHTHNRTPENFPCKNLDENYCRNPDGKRAPWCHTTNSQVRWEYCKIPSCDSSPVSTEQLAPTAPPELTPVVQDCYHGDGQSYRGTSSTTTTGKKCQSWSSMTPHRHQKTPENYPNAGLTMNYCRNPDADKGPWCFTTDPSVRWEYCNLKKCSGTEASVVAPPPVVLLPDVETPSEEDCMFGNGKGYRGKRATTVTGTPCQDWAAQEPHRHSIFTPETNPRAGLEKNYCRNPDGDVGGPWCYTTNPRKLYDYCDVPQCAAPSFDCGKPQVEPKKCPGRVVGGCVAHPHSWPWQVSLRTRFGMHFCGGTLISPEWVLTAAHCLEKSPRPSSYKVILGAHQEVNLEPHVQEIEVSRLFLEPTRKDIALLKLSSPAVITDKVIPACLPSPNYVVADRTECFITGWGETQGTFGAGLLKEAQLPVIENKVCNRYEFLNGRVQSTELCAGHLAGGTDSCQGDSGGPLVCFEKDKYILQGVTSWGLGCARPNKPGVYVRVSRFVTWIEGVMRNN
Regarding B2, the “binding to Aβ in the presence of εACA” value with Aβ is “completely abolished”. Moreover, the “effect on Aβ-induced cell detachment” value in experiment [1] is reported as “unable to ameliorate”.
